For one substance, fold increase in binding after digitonin permeabilisation of the microsomes and Kd results are on record in article PMC6097701.

The target of assay [1] is HA-tagged human surfeit locus protein 4 (HA-Surf4) (human) (UniProt O15260). As to the kind of experiment: co-sedimentation; crude microsomes from Surf4^KO HEK293A cells transfected with HA-Surf4, permeabilised with CEB (digitonin) 30 min on ice; 400 nM GH (conditioned media in KHMC buffer) 1 hr on ice; pelleted at >100,000 x g; bound GH released with … peptide and read by hGH ELISA; controls: microsomes without CEB and microsomes of untransfected Surf4^KO cells.

The target is the same in assay [2]. As to the kind of experiment: binding to immuno-isolated microsomes on magnetic beads, bound GH read by ELISA; titration; microsomes of HA-Surf4-transfected HEK293A cells held on Protein G-Dynabeads with anti-Surf4 carboxy-terminal antibody, CEB-permeabilised; 0, 100, 200, 300, 400 or 800 nM GH for 1 hr at RT in KHMC buffer; GH eluted with … peptide; estimate of the binding constant from half-maximal ….

Sequence of UniProt O15260 (O15260 whole entry): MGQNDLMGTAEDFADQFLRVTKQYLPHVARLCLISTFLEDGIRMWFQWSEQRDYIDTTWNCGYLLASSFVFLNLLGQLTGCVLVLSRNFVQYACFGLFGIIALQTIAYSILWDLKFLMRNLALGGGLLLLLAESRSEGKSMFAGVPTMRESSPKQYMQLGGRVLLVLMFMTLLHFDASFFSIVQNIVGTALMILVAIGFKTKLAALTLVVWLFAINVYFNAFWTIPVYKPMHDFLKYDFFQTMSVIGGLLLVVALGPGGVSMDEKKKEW

For “APV-GH (human growth hormone-1 starting with alanine-proline-valine) (from UniProt P01241 27-217) (natural protein)”, the fold increase in binding after digitonin permeabilisation of the microsomes in assay [1] is more than 5 fold. Further, in assay [2], the Kd is 200 to 300 nM.
